# The nanobody polyreactivity screen of Harvey et al. (2022)
# Assay: yeast display, Sf9 membrane polyspecificity reagent, FACS + sequencing; frameworks hold sequencing errors
# In short: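 Nanobodies from a synthetic yeast display library (Saccharomyces cerevisiae BJ5465), induced 36–48 hours with galactose, were stained 1 hour at 4 °C with 10% biotinylated, detergent-solubilized Sf9 membrane reagent, enriched on streptavidin microbeads, then FACS-sorted. Anti-HA (expression) and streptavidin (reagent binding) fluorescence set low and high (top ~1%) gates. Polyreactivity labels come from the gate of origin. Genes were colony-PCR amplified, MiSeq 2 × 250 sequenced and filtered by CDR length.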
row,Sequence,polyreactivity (PSR sort gate)
1,QVQLVESGGGLVQAGGSLRLSCAASGRTFDHYAMGWYIQAPGKERELVAAISNSDGSTNYADSVKGRFTISRDNAMNTVYLQMNSLKPEDTAVYYCNKLYRGGWYDYWGLGTQVTVSS,low polyreactivity
2,QVQLVESGGGLVQAGGSLRLSCAASGSIFFFNAMGWYRQAPGKEREMVAAISESGTSTYYADSVKGRFTISRDNAKNTVYLQMNSLKPEDTAVYYCNVVFRYAYGVYYTPEFYYWGQGTQVTVSS,low polyreactivity
3,QVQQQESGGGLVQAGGSLRLSCAASGSISRLDYMGWYRQATGKERELVAAIDNGSTTYYADSVKGRLTISRDNAKYTVYLQMNSLKPEDNAVYFCAAVRGRGGTHAYWGQGTQVTVSG,low polyreactivity
4,QVQLVESGGGLVQAGGSLRLSCAASRRIFASNAMGWNSQAPGKERELVAAITSSGGSTYYADSVKGRFTISLDNAKNTVYLQMNSLKPEDTAVYYCNAGDYYYRLVTAKPSSYDYWGQGTQVTVSS,high polyreactivity
5,QVQLVESGGGLVQAAGSLRLSCAASGRTLGYYAMGWYRPAPGKERELVAAITRGGSTNYADSVKGRFTISRDNAKNTVYLQMNSLKPEDTAVYYCARRGGYFWLKGDYWGQGTQVTVSS,high polyreactivity
6,QVQLVESGGGLVQAGGSLRLSCAASGFTYLYAMGWYRQAPGKESELDAAISYSGGSTYYADSVKGRFTISRDNAKNTVYLQMNSMKPEDTAVYYCAAGYGTVRGVSYDYWGQGTQVTVSS,low polyreactivity
7,QDQLVESGGGLVQAGGSLRLSCAASGSIFTFNTMGWYRQAPVKERELVATISSGGRTYYADSVKGRFTISRDNAKNTVYLQMNSLKPEDTSVYYCNKGYYGYTYVEYNYWGQGTQVTVSS,low polyreactivity
8,QVHLVESGGGLVQAGGSLRLSCAASGRTFWYYAMGWYRPAPGKERELVAAITRTGGSTYYADSVKGRFTISRDYAKNTVYLQMNSLKPEDTAVYYCARKYSYPVVAPSDYYWGQGTQVTVSS,high polyreactivity
9,QVQLVESGGALVQAGGSLRLSCAASGISFSWYAMGWYRQAPGKEREFVAAISRGGTSTYYADSVKGRLTISRDNAKNTVYLQMNSLKPEDTAVSYCAVQWLYPYDYWGQGTQVTVSS,high polyreactivity
10,QVQLVESGGGSVQAGGSLRLSCAASGSTFQTNAMGWYRQAPGKERELVAAISRTGGRTYYADSVKGRFTISRDNAKNTVYLQMNSLKPEDTAVYYCAASAWIRYNNRDGYGYWGQGTQVTVSS,high polyreactivity
11,QVQLVESGGRLVQAGGSLSLSCAASGRTFHGYAMGWYRQAPGKERELVARINWSDGRTYYADSVKGRFTISRDNAKNTDYLQMNSLKPEDTAVYYCAADKTVSYAPAWYYYWGQGTQVSVSS,low polyreactivity
12,QVQLVESGGGLVQAGGSLRLSCAASGSIFSRYAMGWYRQAPGKESELVAASRWTDSSTYYADSVKGRFTISRDNAKNTVYLQMNSLKPEDTAVYYCAKVYERGSNKVDYWGQGTQVTVSS,low polyreactivity
13,QVQLVESGGGLVQAGGSLRLSCAASGRIFSRNAMGWYRQAPGKERELVAAISRTGGSTYYADSVKGRFTISRDNAKNTVYLQMNSLKPEDTAVYYCADAYYRKSSYGQIVEYDYWGQGTQVTVSS,high polyreactivity
14,QVQLVESGGGLVQAGGSLRLSCAASGRIFKFYDMGWYREAPGKERELVAAISHAGRTNYADSVKGRFTISRDNAKNTVYLQMNSLKPEDTAVYYCNTDYILVRGVPWYYKLDYWGQGTQVTVSS,high polyreactivity
15,QFQLVESGGGLVQAGGSLRLSCAASGSIFYGYAMGWYRQAPGKERELVAAITSSNGSTYYADSVKGRFTISRDNEKNTVYLQMNSLKPEDTAVYYCAADVHGSYYIKPNVWYDYWGQGTQVTVSS,low polyreactivity
16,QVQLVESGGGLVQAGGSLRLSCAASGFTFYKYAMGWYRPAPGKERELVAAITWSGGRTYYADSVKGRFTISRDNAKNTVYLKMNSLKPEDTAVYYCTARQKQGNFDYWGQGTQVTVSS,high polyreactivity
17,QVQLVESGGGLVQAGGSLRLSCAASGRTFGEYTMGWYRQAPGKERELVAAISSAGRTNYADSVKGRFTISRDNAKNTVYLQMNSLKPEDTAVYYCAKTAERLHYGVYRFDYWGQGTQVTVSS,low polyreactivity
18,QVQLVESGGGLVQAGGSLRLSCAASGSTFILNDMGWYRQAPGKERELVAAIDWGDSTTYYADSVKGRFTISRDNAKNTVYLQMNSLKPEDTAVYYCAADYAVSAFTRYPPTEYWGQGTQVTVSS,high polyreactivity
19,QVQLVESGGGLVQAGGSLRLSCDASGFTVVIYTMGWYRQAPGKERELVAAINWSGASTYYADSVKGRFTISRDNAKNTVYLQINSLKPEDTAVYYCNRVYVQQDFPYKIYPYNYWGQGTQVTVSS,high polyreactivity
20,QVQLVESGGGLVQAGGSLRLSCAASGRTFPKYAMGWYRQAPGKERELVAAITWRASRTYYADSVKGRFTISRDYAKITVYLQMNSLKPEDTAVYYCAAKGVGQAPKRDYWGQGTQVNVSS,high polyreactivity
21,QVQLVESGGGLVQAGGSLRLSCAASGFIFVGYAMGWYRQAPGKERELVAAISKSGGSTYYADSVKGRFTISRDNAKNTVYLQMNSLKPEDTAVYYCAAAYASRNYRGLDYWGQGIQVTVSS,high polyreactivity
22,KVQLVESGGGLVQAGGSLRLSCAASGRTFESYAMGWYRQAPGKERELVAAITWSGGDTYYADSVKGRFTISRDNAKNTVYLQMNSLKPEDTAVYYCAKEQGLYSVSPYDYWGLGTQVTVSS,low polyreactivity

row,Sequence,polyreactivity (PSR sort gate)
1,QVQLEESGGGLVQAGGSLRLSCAASGSTFPFYAMGWYRQAPGKERELVAAISRGGSTNYADSVKGRFTISRDNAKNTVYLQMNSLKPEDTAVYYCNADVFWWYPYDYWGQGTQVTVSS,high polyreactivity
2,QVQLVESGGGLVQAGGSLRLSCAASGSTFIYNAMGWYRLAPGKEREFVAGITGSGGSTYYADSVKGRFTISRDNAKNTVYLQMNSLKPEDTAVNYCNADSPVVNYADLDYWGQGTQVSVSS,low polyreactivity
3,QVQLVESGGGLDQAGGSLRLSCAASGSIFYFNAMGWYRQAPGKARELVAAISTSGGSTYADSVKGRFTISRDNAKYTVYLQMNSLKPEDSAVYYFAADYLTSRSRTFDYWGQGTQVTVSS,low polyreactivity
4,QVQLVESGGGLVQAGGSLRLSCAASGRTFVWNAMGWYRQAPGKERELVAAIDWSGGSTYYADSVKGRFTISRDNAKNTVYLQMNSLKPEDTAGYYCAKEYWYRALWYNYWGQGTQVTVSS,high polyreactivity
5,QVQLVESGGGLVQAGGSLRLSCAASGLIFGYNAMGWYRQAPGKERELVASINWSTGRTRYADSVKGRFTISRDNAKNTVYLQMNSLKPEDTAVYYCAARLYNPYPYEYWGQGTQVTVSS,high polyreactivity
6,QVQLVETGGGLVQAGGSLRLSCAASGFNFGPYDIGWYIQAPGKERELVAAITDSSGSTHYADSVKGRFTISRDNAKNTVYLQMNSLKPEDTAVYYWAADDSSRTTYDYWGQGTQVTVSS,low polyreactivity
7,QVQLVESGGGLVQAGGSLRLSCAASGRIFRYNAMGWYRQAPGKERELVATITSGGNTNYADSVKGRFTISRDNAKNTVYLQMISLKPEDTAVYYCNAAEPQWYDAYDYWGQGTQVTVSS,low polyreactivity
8,QVQLVESGGGLVQAGASLRLSCAASGRTFGRYTMGWYRQAPGKEREFVARINWNGGGTYYADSVKGRFTISRDNAKNTVYLQMNSLKPEDTAVYYCNARKRGARFILGYDYWGQGTQVTVSS,low polyreactivity
9,QVQLVESGGGLVQAGGSLRFSCAASGSTFVYYAMGWSRQAPGKERELVARITLSGTSTSYADSVKGRFTISRDNAKNTVYLQMNSLKPEDTAVYYCAAESWSHRYYYWGQGTQVTVSS,low polyreactivity
10,QVQLVESGGGLVPAGGSLRLSCAASGRIFYYYAMGWYRQAPGKERELVAAISSSGGSTYYADSVKGRFTISRDNAKKTVYLQMNSLKPEDTAVYYCAKRYALSGYYRLYDYWGQGTQVTVSS,high polyreactivity
11,QVQLVESGGGLVQAGGSLRLSCSASGRTSQWNAMGWYRQAPGKERELVAAISWRTGGTYYADSVKGRFTISRDKAKNTVYLQMNSLQPEDTAVYYCAAGYIGGRPQYWRIGGYWGQGTQVTVSS,high polyreactivity
12,QVQLVESGGGLVQAGGSLRLSCAASGSIFWYYAMGWYRQAPGKERELVASISSSGGSTYYADSVKGRFTISRDNAKNTVYLQMNSLKPEDTAVYYCAVRSPYRLSRWRVGYWGQGTQVTVSS,high polyreactivity
13,QVQLVESGGGLVQAGGSLRLSCAASGRTGKNAMGWYRQAPVKERELVAAIRYNGGSTYYADSVKGRFTISRDNAKNTVYLQMNSLKPEDTAVYYCAAASRRHNGSAFNYWGQGTLVTVSS,high polyreactivity
14,QVQLVESGGGLVQAGGSLRLSCAASGRTFYFYAMGWSRQSPGKERELVADIRGISGSTYYADSVKGRFTISRDNAKNTVYLQMNSLKPEDTAVYYCAADPYLGRAWRGRGYYWGQGTQVTVSS,high polyreactivity
15,QVQLVDSGGCLVQAGGSLRLSCAASGSTFPTYAMGWYRQAPGKERELVAAITWSGGSTYYADSVKGRFTISRDNAKNTVYLQMNSLKPEDTAVYYCADSAYVQPYDYWGQGTQVTVSS,high polyreactivity
16,QVQLVESGGGLVQAGGSLRLSCAASGSIFVVNAMGWYRQAPGKERELVAAIDWSDGGTYYADSVKGRFTISRDNAKNTVYLQMNSLKPEDTAVYYCATVRYVQITRDDYWGQGTQVTVSS,low polyreactivity
17,QVQLVESGGGLVQAGGSLRLSCAASGSILRLYVMGWYIQAPGKDRELVADISDRGGSTYYADSVKGRFTISRDNAKNTVYLQMNSLKPEDTAVYYCAAEWGQRGGGGYYYWGQGTQVTVSS,low polyreactivity
18,QVQLVESGGGLVQAGGSLRLSCAASGRTIGVYAMGWYRQAPGKERELVAAISWSGGTTYYADSVKGRFTISRDNAKNTVYLQMNSLKPEDTAVYYCAADSYTEVDYWGQGSQVTVSS,low polyreactivity
19,QVQLVESGGGLVQAGGSLRLSCAASGSTFWVNVMGWYRQAPGKERELVATITSGGRTNYADSVKGRFTISRDNAKNTVYLQMNSLKPADTAVYDCAADLKRGDLMDYWGQGTQVTVSS,low polyreactivity
20,QVQLVESGGGLVQAGGSLRLSCASSGRTFRGYVMGWYRQAPGKERELVASISYSGGSTYYADSVKGRFTISRDNAKNTVYLQMNSLKPEDTAVYYCAARKGYDQYRWRYSQNNYWGQGTQVTVSS,high polyreactivity
21,QVHLVESGGGLVQAGGSLRLSCAASGSTFTYYAMGWYRQAPGKERELVAAITSGGSTNYADSVKGRFTISRDNAKNTVYLQMNSLKPEDTAVYYCAGDGQNFQFYVVSEEYDYWGQGTQVTVSS,low polyreactivity
